Measured values reported in article PMC10944878, “Formation of HopQ1:14-3-3 complex in the host cytoplasm modulates nuclear import rate of Pseudomonas syringae effector in Nicotiana benthamiana cells” (Frontiers in Plant Science, 2024).

Legend:
[1] = molecular target: the molecule itself; assay: SEC-MALS; phosphorylated HopQ1 mixed with Nt14-3-3a at a 1:2 mass ratio, 2 h at 4°C; Superdex 200 10/300GL, 100 mM Tris-HCl pH 8.0, 150 mM NaCl, 5 mM DTT
[2] = molecular target: T1, HopQ1-6xHis, in vitro phosphorylated by AtCPK3 (Pseudomonas syringae pv. phaseolicola …, UniProt Q48BD8 1-447, in vitro phosphorylated by AtCPK3; phosphorylated residues of this sample not given); assay: as above; settings: both partners purified
T1 construct: HopQ1 (Hrp outer protein Q), type three effector of Pseudomonas syringae pv. phaseolicola 1448A, GenBank AAZ37975.1; also called phosphorylated HopQ1; recombinant HopQ1; source: phosphorylated in vitro by GST-AtCPK3, then ion-exchange and size-exclusion chromatography
T1 sequence: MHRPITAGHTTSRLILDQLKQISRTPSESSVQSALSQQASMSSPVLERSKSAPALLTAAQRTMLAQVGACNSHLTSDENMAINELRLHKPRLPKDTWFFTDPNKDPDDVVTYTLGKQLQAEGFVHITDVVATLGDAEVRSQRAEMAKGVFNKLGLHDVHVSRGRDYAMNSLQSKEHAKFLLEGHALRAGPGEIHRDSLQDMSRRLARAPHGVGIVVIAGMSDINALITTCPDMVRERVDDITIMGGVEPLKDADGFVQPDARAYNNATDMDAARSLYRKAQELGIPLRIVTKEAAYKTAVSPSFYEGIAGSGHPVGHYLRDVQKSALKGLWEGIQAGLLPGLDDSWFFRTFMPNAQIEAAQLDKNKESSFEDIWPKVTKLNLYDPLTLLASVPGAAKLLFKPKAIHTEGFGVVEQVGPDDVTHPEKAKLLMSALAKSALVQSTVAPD

B1: Nt14-3-3a protein tagged with Strep-tag II (natural protein, UniProt Q75ZE5 1-255, looked up)
chain: MASPREENVYLAKLAEQAERYEEMVEFMEKVVGAGDDELTVEERNLLSVAYKNVIGARRASWRIISSIEQKEESRGNEDHVASIKTYRSKIESELTSICNGILKLLDSKLIGTAATGDSKVFYLKMKGDYYRYLAEFKTGAERKEAAENTLSAYKSAQDIANVELAPTHPIRLGLALNFSVFYYEILNSPDRACNLAKQAFDEAIAELDTLGEESYKDSTLIMQLLRDNLTLWTSDMQDDGTDEIKEPSKAEEQQ
notes: 14-3-3a protein, Nt14-3-3a, GenBank BAD12168.1; also called 14-3-3 dimer; not shown: Strep-tag II, C-terminal, kept
In the case of B1, the “stoichiometry N” value [1] is reported as 2 and the “stoichiometry N” value [2] is reported as 2 14-3-3a per HopQ1.
